Experiment [1] has as its target T1, recombinant human GST-MDM2 (human, UniProt Q00987 1-491).
T1 construct: source: recombinant
Put plainly: fluorescence polarisation. To be noted: both partners purified.

The target in experiment [2] is T2, chemokine-like receptor 1 (CMKLR1) (UniProt Q99788 1-373).
T2 sequence (looked up): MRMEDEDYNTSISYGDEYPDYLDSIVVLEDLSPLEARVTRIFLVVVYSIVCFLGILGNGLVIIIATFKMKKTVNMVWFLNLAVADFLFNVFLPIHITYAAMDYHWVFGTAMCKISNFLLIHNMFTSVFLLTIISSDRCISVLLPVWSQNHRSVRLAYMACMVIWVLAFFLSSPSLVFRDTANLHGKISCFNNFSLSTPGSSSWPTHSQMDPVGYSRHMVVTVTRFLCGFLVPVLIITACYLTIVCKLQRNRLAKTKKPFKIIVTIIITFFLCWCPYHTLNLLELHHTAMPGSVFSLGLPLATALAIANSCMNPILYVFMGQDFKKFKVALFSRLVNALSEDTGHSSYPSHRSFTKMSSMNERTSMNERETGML
Put plainly: cell-based or functional assay.

[ ]: non-standard residue; d: D form. sulfo‑Cy5 = sulfo-cyanine 5 dye; Cit = NC(=O)NCCC[C@H](N)C(=O)O; Pra = C#CC[C@H](N)C(=O)O; (EG)3 = spacer

T1 sequence (Q00987 whole entry): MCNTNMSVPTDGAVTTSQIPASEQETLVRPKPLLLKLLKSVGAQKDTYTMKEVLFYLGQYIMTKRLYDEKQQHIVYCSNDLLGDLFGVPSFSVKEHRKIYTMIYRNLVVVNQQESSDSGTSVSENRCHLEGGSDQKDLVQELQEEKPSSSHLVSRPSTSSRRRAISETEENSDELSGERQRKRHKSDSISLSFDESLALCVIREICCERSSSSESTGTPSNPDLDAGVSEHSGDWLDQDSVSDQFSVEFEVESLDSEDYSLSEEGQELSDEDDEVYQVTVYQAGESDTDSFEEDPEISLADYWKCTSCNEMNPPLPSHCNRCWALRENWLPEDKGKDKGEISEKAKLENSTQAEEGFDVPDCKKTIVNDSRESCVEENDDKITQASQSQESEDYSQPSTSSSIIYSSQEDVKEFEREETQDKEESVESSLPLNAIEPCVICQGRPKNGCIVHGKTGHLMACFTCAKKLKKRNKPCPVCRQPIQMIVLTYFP

B1: Cy5-PMIγ-cC9 (peptide)
chain: {sulfo‑Cy5-(EG)3}-[dD][dW][dW][dP][dL][dA][dF][dE][dA][dL][dL][dR]GEV[Cit]-{(EG)3-Pra-NH2}
modifications: not fully specified (bridges); also: CuAAC triazole link from Pra to azidolysine of the cC9 chain
In the case of B1, the equilibrium dissociation constant (Kd) in experiment [1] was found to be 90 nM. For the same molecule, the “Ca2+ flux assay, EC50” value in experiment [2] turned out to be 185 nM.

The record behind these values is paper PMC12814185, “Receptor-Mediated Shuttling of a D‑Amino Acid Peptide Achieves High Nanomolar Cytosolic Concentrations” (Journal of the American Chemical Society, 2025).
